Tested on: K4 kissing-loop RNA reporter
Test: apparent KD of K4 kissing-loop reporter; higher = weaker reporter binding
Settings: Eterna round: R107
Experimental: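 RNA-MaP round R107: designed RNA switches with theophylline, tryptophan, arginine or FMN aptamers are transcribed on-chip within common flanks. They are titrated with a labelled K4 kissing-loop RNA reporter in RNA-MaP buffer (100 mM Tris pH 7.5, 80 mM KCl, 4 mM MgCl2), without ligand or with the indicated ligand. Median apparent KD per design.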

[1] = input ligand: theophylline 20 uM
[2] = input ligand: tryptophan 2.4 mM
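Note: bound reporter read as fluorescence of individual clusters on recovered sequencing chips by microscopy, with normalized cluster intensities fitted with a binding model.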

Row | Sequence | apparent KD of K4 kissing-loop reporter (input ligand: FMN 200 uM) [nM] | apparent KD of K4 kissing-loop reporter (input ligand: arginine 13.2 mM) [nM] | apparent KD of K4 kissing-loop reporter (input ligand: none) [nM] | apparent KD of K4 kissing-loop reporter [1] [nM] | apparent KD of K4 kissing-loop reporter [2] [nM]
1 | GAUAUAGUGAUGUUAUAUGGGAAGGAGUUACGAGGACCGGUACGGCCGCCACUCGAAACGAGUGAGGAUUUGGGAGAUUGGGUUU [SSTryptA.R] | 369 | 386 | 376 | 488 | 235
2 | GUUAUGGACCUGGAUACCAGCUGGUACUAAGUGGGAGAAUGAAAGUGAUGUUUUCGUGCUAGCCCUUGGCAGCCAGCAACCCGCA [XTheo-B7] | 104 | 83.6 | 89.4 | 79.4 | 80.1
3 | AGGUCACUACUACAGUGAUGUUGUGGAGAGCAGGAUAUGCAGAAAUGCAGAAGGGCUCGCUCUCAGUGACCGAAUGAAACAUUCA [Omei KL FMN A SS A v8] | 663 | 724 | 712 | 566 | 838
4 | AGUGAAGUUAGUGAUGUGUGAGUUUGGGAAGGAGCGCCGAGGAAGGCAGGUAGGUCGCCCAGUGAUGUUGGUGUAAGGAUGAGAG [whbob_Ex_Arginine_A_2t123] | 451 | 332 | 311 | 262 | 303
5 | CCGCUACCCUCAGGAUAUUAAGUAUUAGUGAUGUUAGUAAACCGAUGGCGAAAGCCAUCGGUAUGUUGAGAAGGGAGGGUAGCGG [whbob_SS_FMNB__2th198] | 356 | 946 | 1170 | 847 | 923
6 | CGGAUGUAGUGAUGUUAUAUUAGAUGUAGACGAGGACCGGUACGGCCGCCACUCGUAACGGCUGCUAGCGCGUUGCGAGGUGUGC [ExTryptoA.Cl] | 642 | 611 | 721 | 570 | 510
7 | AAGUGUCAUUAGACACAGACUACAAUAAACUAGGAUAUGCUGAUAAGCAGAAGGAGUGAUGUUCCUUUCAAGUAGUCAAUUAAAU [FmnAX 20 Mat Inspired #SwitchBubble #StaticStem #K4Late] | 243 | 120 | 106 | 128 | 97.6
8 | AGGUCCGAGCCCGGAAGGGCUCGGACCUGUUAGGAUAUGACGUGAUUCAGAAGGGAUGGGUGGAGUGAUGUUCCACCCGAGAGGG [#2 Same State - FMN A Attempt #20 (HarryS)] | 105 | 89.3 | 91.2 | 102 | 109
9 | UAAUAAAUUCCAGCGAUGUCACUCUUCGAAGGAGCGGACGAAAGUCCAGGUAGGUCGCGAAGAGUGAUGUUCUUCGCGGCGCUGG [Omei KL Arginine A Exc A v3] | 167 | 115 | 183 | 204 | 174
10 | GGCGGCCGCGCGCAAGCGCGGCCGGCCGAUACCAGCGCGACGGCGCGCCCUUGGCAGCGGCGCCGAGUGAUGUUCGGCCUGCCGU [#2 Same State - Theophylline A Attempt #15 (HarryS)] | 151 | 81.1 | 146 | 94.2 | 96.4
11 | AGACCACAAAGUGGUCAGUGUUCGCUGCCGCGAGGACCGGUACGGCCGCCACUCGCGAGUGAUGUUCGCGAGGGCAGCGAACACA [Omei KL Tryp A Exc A v4] | 99.7 | 87.8 | 87.9 | 86.8 | 106
12 | CAUUACGGUCGCUUACCAAACCACUACUUCCGAGGACCGGUACGGCCGCCACUCGCCAGUGAUGUUGGCUCGGGCGGCCGAUUAU [Orrebeante] | 117 | 103 | 109 | 97.9 | 106
13 | GGAUAGGACAGAGGAUAUGGUAGCUAGGCAAGAAUAACUUGUCUAGCAUCCAUGAGGAGUGAUGUUCCAGAAGGCUGUCCUAUCG [FmnBX 5 - #SwitchBubble #StaticStem] | 235 | 145 | 211 | 150 | 165
14 | GCGCGGCUCAGUGAUGUUGAGCCUCGGAAACGAGGACCGGUACGGCCGCCACUCGUCCGCGCAGCUGAGGCAAAAGCCUCGGCUA [Omei KL Tryp A SS B v2] | 468 | 310 | 484 | 480 | 273
15 | AGACUACCACACUGUCAAUAGACAGUGUACUAGGAUAUGCUGAUAAGCAGAAGGAGUGAUGUUCCUCGGUAGUCAAUAAAAUAAU [FmnAX 13 U28+C67] | 220 | 300 | 286 | 350 | 276
16 | CCAUCGCUAUUCGAUACCAGUCAGGAGGUCUUUGGCCUCCUAUUGGAGUGAUGUUCCAUAGACCCUUGGCAGCGAAUAGUGAUGG [Theophylline B K4 15] | 822 | 255 | 834 | 613 | 510

— the supplement of paper PMC9170038
